Test results as given in US20260125454A1 (SHANGHAI JUNSHI BIOSCIENCES, published 2026).

T1: Biotin-huCGRPaSA (human, not fully specified; biotin (position not given))
T1 construct: exact construct ('aSA') not explained; also called Biotin CGRPaSA; full-length (1-37) CGRP
T1 peptide: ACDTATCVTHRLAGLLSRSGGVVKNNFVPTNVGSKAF


Molecular target: T1, Biotin-huCGRPaSA
Experiment: ELISA, supernatant; relative to chimeric C245
How it was run: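 Plates coated with biotin-CGRPaSA at 1.0 μg/mL (90 min, 37°C) and blocked with 2% BSA. Humanized antibodies and chimeric C245 reference, 2.5-fold serial dilutions from 1000 ng/mL, bound 60 min at 37°C. Detection by HRP anti-human IgG (Fc), TMB 15 min, read at 450/620 nm.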

Binder | Relative binding activity, %
hu209 (antibody, V domains shown, 3H10 HC-2/1A2 LC2-1) VH: QVQLVQSGAEVKKPGASVKVSCKASGYTFTDYNMHWVRQAPGQGLEWMGYIYPYNGHTVYNQKFRNRVTLTVDTSSSTAYMELRSLRSDDTAVYYCAREGLGGYWGQGTLVTVSS VL: DIVLTQSPASLAVSPGQRATITCKASQNIDYDGYAYLNWYQQKPGQPPKVLIYSVFNLESGVPARFSGSGSGTDFTLTINPVEANDTANYYCQQSNEFPYTFGQGTKLEIK | 64%
hu213 (antibody, V domains shown, 3H10 HC-2/1F5 LC1-1) VH: QVQLVQSGAEVKKPGASVKVSCKASGYTFTDYNMHWVRQAPGQGLEWMGYIYPYNGHTVYNQKFRNRVTLTVDTSSSTAYMELRSLRSDDTAVYYCAREGLGGYWGQGTLVTVSS VL: EIVLTQSPATLSLSPGERATLSCKASQNIDFDGYAYMNWYQQKPGQAPRVLIYSVFNLESGIPARFSGSGSGTDFTLTISSLEPEDFAVYYCQQSHEVPYTFGQGTKLEIK | 38%
hu5 (antibody, V domains shown, 1B2 HC-1/1F5 LC1-1) VH: QVQLVQSGAEVKKPGASVKVSCKASGYTFTDYNMHWVRQAPGQGLEWMGYIFPYNGVAVYNRKFRSRVTLTIDTSSSTAYMELRSLRSDDTAVYYCAREGLGGYWGQGTLVTVSS VL: EIVLTQSPATLSLSPGERATLSCKASQNIDFDGYAYMNWYQQKPGQAPRVLIYSVFNLESGIPARFSGSGSGTDFTLTISSLEPEDFAVYYCQQSHEVPYTFGQGTKLEIK | 88%
hu6 (antibody, V domains shown, 1B2 HC-1/1F5 LC1-2) VH: QVQLVQSGAEVKKPGASVKVSCKASGYTFTDYNMHWVRQAPGQGLEWMGYIFPYNGVAVYNRKFRSRVTLTIDTSSSTAYMELRSLRSDDTAVYYCAREGLGGYWGQGTLVTVSS VL: EIVLTQSPATLSLSPGERATLSCKASQNIDFDGYAYMNWYQHKPGQAPRVLIYSVFNLESGIPARFSGSGSGTDFTLTISSLEPEDFAVYYCQQSHEVPYTFGQGTKLEIK | 93%
hu120 (antibody, V domains shown, 2B8 HC1-2/1A2 LC2-3) VH: QVQLVQSGAEVKKPGASVKVSCKASGYTFTDYNMHWVRQAPGQGLEWMGNIYPYNGGTVYNQKFNNRVTLTVDTSSSTAYMELRSLRSDDTAVYYCAREGLGGYWGQGTLVTVSS VL: EIVLTQSPATLSLSPGERATLSCKASQNIDYDGYAYLNWYQQKPGQAPRVLIYSVFNLESGIPARFSGSGSGTDFTLTISSLEPEDFAVYYCQQSNEFPYTFGQGTKLEIK | 28%
hu110 (antibody, V domains shown, 2B8 HC1-1/1F5 LC1-2) VH: QVQLVQSGAEVKKPGASVKVSCKASGYTFTDYNMHWVRQAPGQGLEWMGNIYPYNGGTVYNQKFNNRVTLTVDTSSSTAYMELSRLRSDDTAVYYCAREGLGGYWGQGTLVTVSS VL: EIVLTQSPATLSLSPGERATLSCKASQNIDFDGYAYMNWYQHKPGQAPRVLIYSVFNLESGIPARFSGSGSGTDFTLTISSLEPEDFAVYYCQQSHEVPYTFGQGTKLEIK | 85%
hu96 (antibody, V domains shown, 2A2 HC-1/1F5 LC1-1) VH: QVQLVQSGAEVKKPGASVKVSCKASGYTFTDYNMHWVRQAPGQRLEWMGYVYPYNGGSAYNQKFKSRVTLTVDTSSSTAYMELSSLRSEDTAVYYCAREGLGGYWGQGTLVTVSS VL: EIVLTQSPATLSLSPGERATLSCKASQNIDFDGYAYMNWYQQKPGQAPRVLIYSVFNLESGIPARFSGSGSGTDFTLTISSLEPEDFAVYYCQQSHEVPYTFGQGTKLEIK | 82%
hu107 (antibody, V domains shown, 2B8 HC1-1/1A2 LC2-3) VH: QVQLVQSGAEVKKPGASVKVSCKASGYTFTDYNMHWVRQAPGQGLEWMGNIYPYNGGTVYNQKFNNRVTLTVDTSSSTAYMELSRLRSDDTAVYYCAREGLGGYWGQGTLVTVSS VL: EIVLTQSPATLSLSPGERATLSCKASQNIDYDGYAYLNWYQQKPGQAPRVLIYSVFNLESGIPARFSGSGSGTDFTLTISSLEPEDFAVYYCQQSNEFPYTFGQGTKLEIK | 73%
hu19 (antibody, V domains shown, 1B2 HC-2/1F5 LC1-2) VH: QVQLVQSGAEVKKPGASVKVSCKASGYTFTDYNMHWVRQAPGQRLEWMGYIFPYNGVAVYNRKFRSRVTLTVDTSSSTAYMELSSLRSEDTAVYYCAREGLGGYWGQGTLVTVSS VL: EIVLTQSPATLSLSPGERATLSCKASQNIDFDGYAYMNWYQHKPGQAPRVLIYSVFNLESGIPARFSGSGSGTDFTLTISSLEPEDFAVYYCQQSHEVPYTFGQGTKLEIK | 73%
hu31 (antibody, V domains shown, 1F5 HC-1/1F5 LC1-1) VH: QVQLVQSGAEVKKPGASVKVSCKASGYTFIDFNMHWVRQAPGQRLEWMGYIYPYNGDVVYNQNFTNRVTLTVDTSSSTAYMELSSLRSEDTAVYYCAREGLGGYWGQGTLVTVSS VL: EIVLTQSPATLSLSPGERATLSCKASQNIDFDGYAYMNWYQQKPGQAPRVLIYSVFNLESGIPARFSGSGSGTDFTLTISSLEPEDFAVYYCQQSHEVPYTFGQGTKLEIK | 79%
hu215 (antibody, V domains shown, 3H10 HC-2/1F5 LC1-3) VH: QVQLVQSGAEVKKPGASVKVSCKASGYTFTDYNMHWVRQAPGQGLEWMGYIYPYNGHTVYNQKFRNRVTLTVDTSSSTAYMELRSLRSDDTAVYYCAREGLGGYWGQGTLVTVSS VL: DIVLTQSPASLAVSPGQRATITCKASQNIDFDGYAYMNWYQQKPGQPPKVLIYSVFNLESGVPARFSGSGSGTDFTLTINPVEADDTANYYCQQSHEVPYTFGQGTKLEIK | 94%
hu3 (antibody, V domains shown, 1B2 HC-1/1A2 LC2-3) VH: QVQLVQSGAEVKKPGASVKVSCKASGYTFTDYNMHWVRQAPGQGLEWMGYIFPYNGVAVYNRKFRSRVTLTIDTSSSTAYMELRSLRSDDTAVYYCAREGLGGYWGQGTLVTVSS VL: EIVLTQSPATLSLSPGERATLSCKASQNIDYDGYAYLNWYQQKPGQAPRVLIYSVFNLESGIPARFSGSGSGTDFTLTISSLEPEDFAVYYCQQSNEFPYTFGQGTKLEIK | 41%
hu18 (antibody, V domains shown, 1B2 HC-2/1F5 LC1-1) VH: QVQLVQSGAEVKKPGASVKVSCKASGYTFTDYNMHWVRQAPGQRLEWMGYIFPYNGVAVYNRKFRSRVTLTVDTSSSTAYMELSSLRSEDTAVYYCAREGLGGYWGQGTLVTVSS VL: EIVLTQSPATLSLSPGERATLSCKASQNIDFDGYAYMNWYQQKPGQAPRVLIYSVFNLESGIPARFSGSGSGTDFTLTISSLEPEDFAVYYCQQSHEVPYTFGQGTKLEIK | 67%
hu109 (antibody, V domains shown, 2B8 HC1-1/1F5 LC1-1) VH: QVQLVQSGAEVKKPGASVKVSCKASGYTFTDYNMHWVRQAPGQGLEWMGNIYPYNGGTVYNQKFNNRVTLTVDTSSSTAYMELSRLRSDDTAVYYCAREGLGGYWGQGTLVTVSS VL: EIVLTQSPATLSLSPGERATLSCKASQNIDFDGYAYMNWYQQKPGQAPRVLIYSVFNLESGIPARFSGSGSGTDFTLTISSLEPEDFAVYYCQQSHEVPYTFGQGTKLEIK | 78%
hu83 (antibody, V domains shown, 1F5 HC-5/1F5 LC1-1) VH: QVQLVQSGAEVKKPGASVKVSCKASGYTFIDFNMHWVRQAPGQRLEWMGYIYPYNADVVYNQDFTNRVTLTVDTSSSTAYMELSSLRSEDTAVYYCAREGLGGYWGQGTLVTVSS VL: EIVLTQSPATLSLSPGERATLSCKASQNIDFDGYAYMNWYQQKPGQAPRVLIYSVFNLESGIPARFSGSGSGTDFTLTISSLEPEDFAVYYCQQSHEVPYTFGQGTKLEIK | 102%
hu97 (antibody, V domains shown, 2A2 HC-1/1F5 LC1-2) VH: QVQLVQSGAEVKKPGASVKVSCKASGYTFTDYNMHWVRQAPGQRLEWMGYVYPYNGGSAYNQKFKSRVTLTVDTSSSTAYMELSSLRSEDTAVYYCAREGLGGYWGQGTLVTVSS VL: EIVLTQSPATLSLSPGERATLSCKASQNIDFDGYAYMNWYQHKPGQAPRVLIYSVFNLESGIPARFSGSGSGTDFTLTISSLEPEDFAVYYCQQSHEVPYTFGQGTKLEIK | 82%
hu57 (antibody, V domains shown, 1F5 HC-3/1F5 LC1-1) VH: QVQLVQSGAEVKKPGASVKVSCKASGYTFTDFNMHWVRQAPGQGLEWMGYIYPYNGDVVYNQNFTNRVTLTVDTSSSTAYMELRSLRSDDTAVYYCAREGLGGYWGQGTLVTVSS VL: EIVLTQSPATLSLSPGERATLSCKASQNIDFDGYAYMNWYQQKPGQAPRVLIYSVFNLESGIPARFSGSGSGTDFTLTISSLEPEDFAVYYCQQSHEVPYTFGQGTKLEIK | 78%
hu55 (antibody, V domains shown, 1F5 HC-3/1A2 LC2-3) VH: QVQLVQSGAEVKKPGASVKVSCKASGYTFTDFNMHWVRQAPGQGLEWMGYIYPYNGDVVYNQNFTNRVTLTVDTSSSTAYMELRSLRSDDTAVYYCAREGLGGYWGQGTLVTVSS VL: EIVLTQSPATLSLSPGERATLSCKASQNIDYDGYAYLNWYQQKPGQAPRVLIYSVFNLESGIPARFSGSGSGTDFTLTISSLEPEDFAVYYCQQSNEFPYTFGQGTKLEIK | 18%
hu44 (antibody, V domains shown, 1F5 HC-2/1F5 LC1-1) VH: QVQLVQSGAEVKKPGASVKVSCKASGYTFTDFNMHWVRQAPGQRLEWMGYIYPYNGDVVYNQNFTNRVTLTVDTSSSTAYMELSSLRSEDTAVYYCAREGLGGYWGQGTLVTVSS VL: EIVLTQSPATLSLSPGERATLSCKASQNIDFDGYAYMNWYQQKPGQAPRVLIYSVFNLESGIPARFSGSGSGTDFTLTISSLEPEDFAVYYCQQSHEVPYTFGQGTKLEIK | 99%
hu16 (antibody, V domains shown, 1B2 HC-2/1A2 LC2-3) VH: QVQLVQSGAEVKKPGASVKVSCKASGYTFTDYNMHWVRQAPGQRLEWMGYIFPYNGVAVYNRKFRSRVTLTVDTSSSTAYMELSSLRSEDTAVYYCAREGLGGYWGQGTLVTVSS VL: EIVLTQSPATLSLSPGERATLSCKASQNIDYDGYAYLNWYQQKPGQAPRVLIYSVFNLESGIPARFSGSGSGTDFTLTISSLEPEDFAVYYCQQSNEFPYTFGQGTKLEIK | 39%
hu42 (antibody, V domains shown, 1F5 HC-2/1A2 LC2-3) VH: QVQLVQSGAEVKKPGASVKVSCKASGYTFTDFNMHWVRQAPGQRLEWMGYIYPYNGDVVYNQNFTNRVTLTVDTSSSTAYMELSSLRSEDTAVYYCAREGLGGYWGQGTLVTVSS VL: EIVLTQSPATLSLSPGERATLSCKASQNIDYDGYAYLNWYQQKPGQAPRVLIYSVFNLESGIPARFSGSGSGTDFTLTISSLEPEDFAVYYCQQSNEFPYTFGQGTKLEIK | 55%
